# Data as given in the RNAGym collection of RNA variant scans (doi:10.1073/pnas.2313332121).
# Variants at the floor of the assay were thinned out.
# B1: TPR 5TU (parent)
# chain: GGAUCUUCUCGAUCUAACAAAAAAGACAAAUCUGCCACAAAGCUUGAGAGCAUCUUCGGAUGCAGAGGCGGCAGCCUUCGGUGGCGCGAUAGCGCCAACGUUCUCAACUAUGACACGCAAAACGCGUGCUCCGUUGAAUGGAGUUUAUCAUG
# Variants of: B1
# Test: polymerase ribozyme fitness, log enrichment relative to wild type (log ratio); higher = more active; in vitro selection for triplet polymerase activity
# Method in brief: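 Mutant libraries of both subunits of a heterodimeric triplet polymerase ribozyme were PCR-built, transcribed, and selected once in triplicate, with frozen incubation at −7 °C and capture of gel-excised extended constructs on streptavidin beads before RT-PCR. Illumina sequencing of input and output libraries was filtered to genotypes with ≥10 input reads and ≥1 read per output. Fitness is the logarithm of genotype enrichment over wild-type enrichment, using inverse-variance-weighted replicate averages. The logarithm is base 2.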
row,Variant,polymerase ribozyme fitness (log ratio)
1,GGAUCUUCUCGAUCUAACAAAAAAGACAAAUCUGCCACAAAGCUUGAGAGCAUCUUCCGAUGCAGAGGCGGCAGCCUUCGGUGGCGCGUUAGCGACAACGUUCUCAACUAUGACACGCAAAACGCUUGCUCCGUUGAAUGGAGUUUAUCAUG,-0.892
2,GGAUCUUCUCGAUCUAACAAAAAAGACAAAUCUGCCACAAAGCUUGAGAGCAUCUUCCGAUGCAGAGGCGGCAGCCUUCGGUGGCGCGAUAGCGCCAACGUUCUCAACUAUGACACGCAAAACGCGUGCUCCGUUGAAUCGAGUUUAUCAUG,-4.02
3,GGAUCUUCUCGAUCUAACAAAAAAGACAAAUCUGCCACAAAGCUUGAGAGCAUCUUCUUAUGCAGAGGCGGCAGCCUUCGGUGGCGCGAUAGCGCGAACGUUCUCAACUAUGACACGCAAAAAGCGUGCUCCGUUGAAUGGAGUUUAUUAUG,-3.08
4,GGAUCUUCUCGAUCUAACAAAAAAGACAAAUCUGCCACAAAGCUUGAGAGCAUCUUCCGAUGCAGAGGCGGCAGCAUUCGGUUGCGCGAUAGCGCCAACGUUCUCAACUAUGACACGCAAAACGCGUGCUCCGUUGAAUGGAGUUUAUCAUG,-2.66
5,GGAUCUUCUCGAUCUAACAAAAAAGACAAAUCUGCCACAAAGCUUGAGAGCAUCUUCUGAUGCAGAGGCGGCAGCCUUCGGUGGCGCGGUAGCGCCAACGUUCUCAACUAUGACACGCAAAACGCGUGCUCCGUUGAAUGGAGUUUAUCAUG,-0.659
6,GGAUCUUCUCGAUCUAACAAAAAAGACAAAUCUGCCACAAAGCUUGAGAGCAUCUUCCGAUGCAGAGGCGGAAGCCUUCGGUGGCGCGAUAGCGCCAACGUUCUCAACUCUGACACGCAAAACGCGUGCUCCGUUGAAUGGAGUUUGUCCUG,≤ -4.2
7,GGAUCUUCUCGAUCUAACAAAAAAGACAAAUCUGCCACAAAGCUUGAGAGCAUCUUCCGAUGCAGAGGCGGCAGCCUUCGGUGGUGCGAUAGCGCCAACGUUCUCAACUAUGACACUCAAAACGCGUGCUCCGUUGAAUGGAGUUUAUCAUG,-0.00983
8,GGAUCUUCUCGAUCUAACAAAAAAGACAAAUCUGCCACAAAGCUUGAGAGCAUCUUCCGAUGCAGAGGCGGCAGCCUUCGGUGGCGCGAUAGCGCCAACGUUCUCCACUAUGACACGCAAAACGCGUGCUCCGUUGAAUGGAGUUUAUCAUG,0.355
9,GGAUCUUCUCGAUCUAACAAAAAAGACAAAUCUGCCACAAAGCUUGAGAGCAUCUUCCGAUGCAGAGGCGGCAGCCUUCGGUGGCGCGAUAGCGCUAACGUUCUCAACUAUGACACGCAAAACGCGUGCUCCGUUGAAUGGAGUUUAUCGUG,-0.919
10,GGAUCUUCUCGAUCUAACAAAAAAGACAAAUCUGCCACAAAGCUUGAGAGCAUCUUCUGAUGCAGAGGCGGCAGCCUUCGGUGGCGCGAUAGCGCCAACGUUCUUGACUAUGACACGCAAAACGCGUGCUCCGUUGAAUGGAGUUUAUUAUG,0.147
11,GGAUCUUCUCGAUCUAACAAAAAAGACAAAUCUGCCACAAAGCUUGAGAGCAUCUUCCGAUGCAGAGGCGGCAGCCUUCGGUGUCGCGAUAGCGCCUACGUUCUCAACUAUGACACGCAAAACGCGUGCUCCGUUGAAUGGAGUUUAUCAUG,-3.58
12,GGAUCUUCUCGAUCUAACAAAAAAGACAAAUCUGCCACAAAGCUUGAGAGCAUCUUCCGAUGCAGAGGCGGCAGCCUUCGGUGGCGGGAUAGCGCCAACGUUCUCAACUAUGACACGCAAAACGCGUGCUCCGUUGAAUGGAGUUUAUCAUG,≤ -4.2
13,GGAUCUUCUCGAUCUAACAAAAAAGACAAAUCUGCCACAAAGCUUGAGAGCAUCUUCCGAUGCAGAGGCGGCAGCCUUCGGUGGGGCGAAAGCGCCAACGUUCUCAACUAUGACACGCAAAACGCGUGCUCCGUUGAAAUGAGUUUAUCAUG,≤ -4.2
14,GGAUCUUCUCGAUCUAACAAAAAAGACAAAUCUGCCACAAAGCUUGAGAGCAUCUUCCGAUGCAGAGGCGGCAGCCUUCGGUGGCGCGAUAGCGCCAACGUUCUCAACUAUGACACGCCAAACGCGUGCUCCGUUGAAUGGAGUUUAUCAUG,-0.0646
15,GGAUCUUCUCGAUCUAACAAAAAAGACAAAUCUGCCACAAAGCUUGAGAGCAUCUUCCGAUGCAGAGGCGGCAGCCUUCGGUGGCGCGAUAGCGCUAACGUUCUCAACUAUGACACGCAAAACGCGUGCUCCGUUGAAUGGAGUUUAUCAUG,-1.02
16,GGAUCUUCUCGAUCUAACAAAAAAGACAAAUCUGCCACAAAGCUUGAGAGCAUCUUCUGGUGCAGAGGCGGCAGCCUUCGGUGGCGCGAUAGCGCCAACGUUCUCAACUAUGACACGCAAAACGCGUGCUCCGUUGCAUGGAGUUUAUCAUG,≤ -4.2
17,GGAUCUUCUCGAUCUAACAAAAAAGACAAAUCUGCCACAAAGCUUGAGAGCAUCUUCCGAUGCAGAGACGGCAGCCUUCGGUGGCGCGAUAGCGCCAACGUUCUCAACUAUGACACGCAAAACGCGUGCUCCGUUGAAUGGAGUUUAUCAUG,-3.97
18,GGAUCUUCUCGAUCUAACAAAAAAGACAAAUCUGCCACAAAGCUUGAGAGCAUCUUCCGAUGCAGAGGCGGCAGCCUUCGGUGGCGCGAUAGCGCCAACGUUCUCAACUAUGACACGCAAAACGCGUGCUCCGUUGAAUGGAAUUUAUCAUG,-0.724
19,GGAUCUUCUCGAUCUAACAAAAAAGACAAAUCUGCCACAAAGCUUGAGAGCAUCUUCUGAUGCAGAGGCGGCAGCCUUCGGUGGCGCGAUAGCGUCAACGUUCUCAACUAUGACACGCAAAACGCGUGCUCCGUUGAAUGGAGUUUAUCAUG,-0.414

row,Variant,polymerase ribozyme fitness (log ratio)
1,GGAUCUUCUCGAUCUAACAAAAAAGACAAAUCUGCCACAAAGCUUGAGAGCAUCUUCCGAUGCAGAGGCGGCAGCCUUCGGUGGCGCGAUAGCACCAACGUUCUCAACUAUGACACGCAAAACGCGUGCUCCGUUGAAUGGAGUUUAUCAUG,-0.64
2,GGAUCUUCUCGAUCUAACAAAAAAGACAAAUCUGCCACAAAGCUUGAGAGCAUCUUCUGAUGCAGAGGCGGCAGCCUUCGGUGGCGCGAUAGCGACAACGUUCUCAACUAUGACACGCAAAACGCGUGCUCCGUUGAAUGGAGUUUAUUAUG,-0.828
3,GGAUCUUCUCGAUCUAACAAAAAAGACAAAUCUGCCACAAAGCUUGAGAGCAUCUUCCGAUGCAGAGGCGGCAGCCUUCGGAGGCGCGAUAGCGCCAACGUUCUCAACUAUGACACGCAAAACGCGUGCUCCGUUGAAUGGACUUUAUCAUG,-1.86
4,GGAUCUUCUCGAUCUAACAAAAAAGACAAAUCUGCCACAAAGCUUGAGAGCAUCUUCCGAUGCAGAGGCGGCAGCGGUCGGUGGCGCGAUAGCGCCAACGUUCUCAACUAUGACACGCAAAACGCGUGCUCCGUUGAAUGGAGUUUAUCAUG,≤ -4.2
5,GGAUCUUCUCGAUCUAACAAAAAAGACAAAUCUGCCACAAAGCUUGAGAGCAUCUUCUGAUGCAGAGGCGGCAGCAUUCGGUGGCGCGAUAGCGCCAACGUUCUCAACUAUGACACGCAAAACGCGUGCUCCGUUGAAUGGAGUUUAUCAUG,0.0806
6,GGAUCUUCUCGAUCUAACAAAAAAGACAAAUCUGCCACAAAGCUUGAGAGCAUCUUCUUAUGCAGAGGCGGCAGCCUUCGGAGACGCGAUAGCGCCAACGUUCUCAACUAUGACUCGCAAAACGCGUGCUCCGUUGAAUGGAAUUUAUCAUG,≤ -4.2
7,GGAUCUUCUCGAUCUAACAAAAAAGACAAAUCUGCCACAAAGCUUGAGAGCAUCUUCCGAUGCAGAGGCGGCAGCCUUCGGUGGCGCGAUAGCGCCAACGUUCUCAACUAUGACACGCAAAUCGCGUGCUCCGUUGAAUGGGAUUUAUCAUG,-4.05
8,GGAUCUUCUCGAUCUAACAAAAAAGACAAAUCUGCCACAAAGCUUGAGAGCAUCUUCCGAUGCAGAGGCGGCAGCCUUCGGUGGAGCGAUAGCGCCAACGUUCUCAACUAUGACACGCAAAACGCGUGCUCCGUUGAAUGGAGUUUAUCAUG,-3.71
9,GGAUCUUCUCGAUCUAACAAAAAAGACAAAUCUGCCACAAAGCUUGAGAGCAUCUUCCGAUGCAGAGGCGGCAGCCUUCGGUAGCGCGAUAGUGCCAACGUUCUCAACUAUGACACGCAAAACGCGUGCUCCGUUGAAUGGAGUUUAUCAUG,-2.03
10,GGAUCUUCUCGAUCUAACAAAAAAGACAAAUCUGCCACAAAGCUUGAGAGCAUCUUCCAAUGCAGAGGCGGCAGCCUUCGGUGGUGCGAUAGCGCCAACGUUCUCAACUAUGACACGCAAAACGCGUGCUCCCUUGAAUGGAGUUUAUCAUG,-1.29
11,GGAUCUUCUCGAUCUAACAAAAAAGACAAAUCUGCCACAAAGCUUGAGAGCAUCUUCCGAUGCAGAGGCGGCAGCCUUCGGUGGCGCGAUAGCGCCAACGUUCUCAACUAUGACACGCAAAACGCGUGCUCCGUUGAAUGGAGUUUAUCUUG,1.46
12,GGAUCUUCUCGAUCUAACAAAAAAGACAAAUCUGCCACAAAGCUUGAGAGCAUCUUCCGAUGCAGAGGCGGCAGCCUUCGGUGGCGCGAUAGCGUCAACGUUCUCAACUAUGACACGCAAAACGCGUGCUCCGUUGAAUGGAGUUUAUCAUG,-0.651
13,GGAUCUUCUCGAUCUAACAAAAAAGACAAAUCUGCCACAAAGCUUGAGAGCAUCUUCCGAUGCAGAGGCGGUAGCCUUCGGUGGCGCGAUAGCGCCAGCGUUCUCAACUAUGACACGCAAAACGCGUGCUCCGUUGAAUGGAGUUUAUCAUG,0.461
14,GGAUCUUCUCGAUCUAACAAAAAAGACAAAUCUGCCACAAAGCUUGAGAGCAUCUUCCGAUGCAGAGGCGGCAGCCUUCGGUGGCGCGAUAGCGCCUACGUUCUCAACUAUGACACGCAAAACGCGUGCUCCGUUGAAUGGAGUUUAUCAUG,-0.712
15,GGAUCUUCUCGAUCUAACAAAAAAGACAAAUCUGCCACAAAGCUUGAGAGCAUCUUCUGGUGCAGAGGCGGCAGCCUUCGGUGGCGCGAUAGCGCCAACGUUCUCAACUAUGACACGCAAAACGCGUGCUCCGUUGAAUGGAGUUUAUCAUG,0.208
16,GGAUCUUCUCGAUCUAACAAAAAAGACAAAUCUGCCACAAAGCUUGAGAGCAUCUUCUGCUGCAGAGGCGGCAGCCUUCGGUGGCGCGAUAGCGCCAACGUUCUGAACUAUGACACGCAAAACGCGUGCUCCGUUGAAUGGAGUUUAGCAUG,≤ -4.2
17,GGAUCUUCUCGAUCUAACAAAAAAGACAAAUCUGCCACAAAGCUUGAGAGCAUCUUCCGAUGCAGAGGCGGCAGCCUUCGGUGGCGCGAUAGCGUCAACGUUCUCAACUAUGACACGCAAAACGCGUGCUCCGUUGAAUGGAGUUUAUCCUG,-3.72
18,GGAUCUUCUCGAUCUAACAAAAAAGACAAAUCUGCCACAAAGCUUGAGAGCAUCUUCCGAUGCAGAGGCGGCAGCCUUCGGUGGCGCGAUAGCGCCAACGUUCUCAACUAUGACACGCAAAACGCUUGCUCCGUUGAAUGGAGUGUAUCAUG,-3.82
19,GGAUCUUCUCGAUCUAACAAAAAAGACAAAUCUGCCACAAAGCUUGAGAGCAUCUUCUGAUGCAGAGGCGGCAGCCUUCGGUGGCGCGAUAGCGCCAACGUUCUUAACUAUGACACGCAAAACGCGUGCUCCGAUGUAUGGAGAUUAUCAUG,≤ -4.2
